Source: the supplement of paper PMC5998384

Legend:
HeLa Kyoto [1] = assay: melting temperature (median over replicates), in situ; higher = more thermally stable
HeLa Kyoto [2] = assay: solubility change mitosis vs G1/S (difference of NP-40 vs SDS log2 ratios) (log2 ratio difference); higher = more soluble in mitosis
HeLa Kyoto [3] = assay: solubility in G1/S (NP-40 vs SDS abundance) (log2 ratio); higher = more soluble; conditions: cell cycle stage: G1/S
HeLa Kyoto [4] = assay: thermal stability score vs G1/S (z-score of summed log2 fold changes over temperatures); higher = more thermally stable than in G1/S
[5] = cell cycle stage: early G1 (4.5 h after nocodazole release)
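Wherever melting temperature (median over replicates), in situ is given: HeLa Kyoto cells synchronized by double thymidine or nocodazole block, proteins quantified by TMT10plex mass spectrometry, three independent biological replicates.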
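Wherever solubility change mitosis vs G1/S (difference of NP-40 vs SDS log2 ratios) is given: synchronized HeLa Kyoto cells (double thymidine block for G1/S, nocodazole release for mitosis), protein amounts in NP-40 versus SDS lysates quantified by mass spectrometry, three biological replicates.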
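Wherever solubility in G1/S (NP-40 vs SDS abundance) is given: HeLa Kyoto cells arrested at G1/S by double thymidine block, proteins quantified by TMT10plex mass spectrometry in mild NP-40 versus SDS extracts, three biological replicates.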
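Wherever thermal stability score vs G1/S (z-score of summed log2 fold changes over temperatures) is given: synchronized HeLa Kyoto cells, proteins quantified by TMT10plex mass spectrometry, three biological replicates, mitosis taken 0.5 h after nocodazole release, G1/S directly after double thymidine block.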

MRPPGFLSRAPSLNRAERGIWSCSMDQREPLPPAPAENEMKYDTNNNEEEEGEQFDFDSGDEIPEADRQAPSAPETGGAGASEAPAPTGGEDGAGAETTPVAEPTKLVLPMKVNPYSVIDITPFQEDQPPTPVPSAEEENVGLHVPCGYLVPVPCGYAVPSNLPLLLPAYSSPVIICATSLDEEAETPEVTEDRQPNSLSSEEPPTSEDQVGREDSALARWAADPANTAWMENPEEAIYDDVPRENSDSEPDEMIYDDVENGDEGGNSSLEYGWSSSEFESYEEQSDSECKNGIPRSFLRSNHKKQLSHDLTRLKEHYEKKMRDLMASTVGVVEIQQLRQKHELKMQKLVKAAKDGTKDGLERTRAAVKRGRSFIRTKSLIAQDHRSSLEEEQNLFIDVDCKHPEAILTPMPEGLSQQQVVRRYILGSVVDSEKNYVDALKRILEQYEKPLSEMEPKVLSERKLKTVFYRVKEILQCHSLFQIALASRVSEWDSVEMIGDVFVASFSKSMVLDAYSEYVNNFSTAVAVLKKTCATKPAFLEFLKQEQEASPDRTTLYSLMMKPIQRFPQFILLLQDMLKNTSKGHPDRLPLQMALTELETLAEKLNERKRDADQRCEVKQIAKAINERYLNKLLSSGSRYLIRSDDMIETVYNDRGEIVKTKERRVFMLNDVLMCATVSSRPSHDSRVMSSQRYLLKWSVPLGHVDAIEYGSSAGTGEHSRHLAVHPPESLAVVANAKPNKVYMGPGQLYQDLQNLLHDLNVIGQITQLIGNLKGNYQNLNQSVAHDWTSGLQRLILKKEDEIRAADCCRIQLQLPGKQDKSGRPTFFTAVFNTFTPAIKESWVNSLQMAKLALEEENHMGWFCVEDDGNHIKKEKHPLLVGHMPVMVAKQQEFKIECAAYNPEPYLNNESQPDSFSTAHGFLWIGSCTHQMGQIAIVSFQNSTPKVIECFNVESRILCMLYVPVEEKRREPGAPPDPETPAVRASDVPTICVGTEEGSISIYKSSQGSKKVRLQHFFTPEKSTVMSLACTSQSLYAGLVNGAVASYARAPDGSWDSEPQKVIKLGVLPVRSLLMMEDTLWAASGGQVFIISVETHAVEGQLEAHQEEGMVISHMAVSGVGIWIAFTSGSTLRLFHTETLKHLQDINIATPVHNMLPGHQRLSVTSLLVCHGLLMVGTSLGVLVALPVPRLQGIPKVTGRGMVSYHAHNSPVKFIVLATALHEKDKDKSRDSLAPGPEPQDEDQKDALPSGGAGSSLSQGDPDAAIWLGDSLGSMTQKSDLSSSSGSLSLSHGSSSLEHRSEDSTIYDLLKDPVSLRSKARRAKKAKASSALVVCGGQGHRRVHRKARQPHQEELAPTVMVWQIPLLNI [ARHGEF10]
melting temperature (HeLa Kyoto [1]; cell cycle stage: G1/S): 49.3 °C | melting temperature (HeLa Kyoto [1]; cell cycle stage: mitosis): 49.8 °C | solubility change mitosis (log2) (HeLa Kyoto [2]): -0.182 | solubility in G1/S (log2) (HeLa Kyoto [3]): -0.0539 | thermal stability score (HeLa Kyoto [4]; [5]): -0.414 | thermal stability score (HeLa Kyoto [4]; cell cycle stage: mitosis): 0.205

MAVADLALIPDVDIDSDGVFKYVLIRVHSAPRSGAPAAESKEIVRGYKWAEYHADIYDKVSGDMQKQGCDCECLGGGRISHQSQDKKIHVYGYSMAYGPAQHAISTEKIKAKYPDYEVTWANDGY [PHPT1]
melting temperature (HeLa Kyoto [1]; cell cycle stage: G1/S): 52.9 °C | melting temperature (HeLa Kyoto [1]; cell cycle stage: mitosis): 53.5 °C | solubility change mitosis (log2) (HeLa Kyoto [2]): 0.028 | solubility in G1/S (log2) (HeLa Kyoto [3]): 0.345 | thermal stability score (HeLa Kyoto [4]; [5]): -0.712 | thermal stability score (HeLa Kyoto [4]; cell cycle stage: mitosis): -1.99

MAAFAVEPQGPALGSEPMMLGSPTSPKPGVNAQFLPGFLMGDLPAPVTPQPRSISGPSVGVMEMRSPLLAGGSPPQPVVPAHKDKSGAPPVRSIYDDISSPGLGSTPLTSRRQPNISVMQSPLVGVTSTPGTGQSMFSPASIGQPRKTTLSPAQLDPFYTQGDSLTSEDHLDDSWVTVFGFPQASASYILLQFAQYGNILKHVMSNTGNWMHIRYQSKLQARKALSKDGRIFGESIMIGVKPCIDKSVMESSDRCALSSPSLAFTPPIKTLGTPTQPGSTPRISTMRPLATAYKASTSDYQVISDRQTPKKDESLVSKAMEYMFGW [NUP35]
melting temperature (HeLa Kyoto [1]; cell cycle stage: G1/S): 52.3 °C | melting temperature (HeLa Kyoto [1]; cell cycle stage: mitosis): 52 °C | solubility change mitosis (log2) (HeLa Kyoto [2]): -0.0493 | solubility in G1/S (log2) (HeLa Kyoto [3]): 0.209 | thermal stability score (HeLa Kyoto [4]; [5]): -2.22 | thermal stability score (HeLa Kyoto [4]; cell cycle stage: mitosis): -0.679

MASEELQKDLEEVKVLLEKATRKRVRDALTAEKSKIETEIKNKMQQKSQKKAELLDNEKPAAVVAPITTGYTVKISNYGWDQSDKFVKIYITLTGVHQVPTENVQVHFTERSFDLLVKNLNGKSYSMIVNNLLKPISVEGSSKKVKTDTVLILCRKKVENTRWDYLTQVEKECKEKEKPSYDTETDPSEGLMNVLKKIYEDGDDDMKRTINKAWVESREKQAKGDTEF [CACYBP]
melting temperature (HeLa Kyoto [1]; cell cycle stage: G1/S): 52.2 °C | melting temperature (HeLa Kyoto [1]; cell cycle stage: mitosis): 52.2 °C | solubility change mitosis (log2) (HeLa Kyoto [2]): -0.0888 | solubility in G1/S (log2) (HeLa Kyoto [3]): 0.412 | thermal stability score (HeLa Kyoto [4]; [5]): 0.00133 | thermal stability score (HeLa Kyoto [4]; cell cycle stage: mitosis): -1.11

SEPHS1
melting temperature (HeLa Kyoto [1]; cell cycle stage: G1/S): 58.8 °C | melting temperature (HeLa Kyoto [1]; cell cycle stage: mitosis): 58.8 °C | solubility change mitosis (log2) (HeLa Kyoto [2]): -0.0554 | solubility in G1/S (log2) (HeLa Kyoto [3]): 0.503 | thermal stability score (HeLa Kyoto [4]; [5]): -1.3 | thermal stability score (HeLa Kyoto [4]; cell cycle stage: mitosis): -1.24

MWSGRSSFTSLVVGVFVVYVVHTCWVMYGIVYTRPCSGDANCIQPYLARRPKLQLSVYTTTRSHLGAENNIDLVLNVEDFDVESKFERTVNVSVPKKTRNNGTLYAYIFLHHAGVLPWHDGKQVHLVSPLTTYMVPKPEEINLLTGESDTQQIEAEKKPTSALDEPVSHWRPRLALNVMADNFVFDGSSLPADVHRYMKMIQLGKTVHYLPILFIDQLSNRVKDLMVINRSTTELPLTVSYDKVSLGRLRFWIHMQDAVYSLQQFGFSEKDADEVKGIFVDTNLYFLALTFFVAAFHLLFDFLAFKNDISFWKKKKSMIGMSTKAVLWRCFSTVVIFLFLLDEQTSLLVLVPAGVGAAIELWKVKKALKMTIFWRGLMPEFQFGTYSESERKTEEYDTQAMKYLSYLLYPLCVGGAVYSLLNIKYKSWYSWLINSFVNGVYAFGFLFMLPQLFVNYKLKSVAHLPWKAFTYKAFNTFIDDVFAFIITMPTSHRLACFRDDVVFLVYLYQRWLYPVDKRRVNEFGESYEEKATRAPHTD [CLPTM1L]
melting temperature (HeLa Kyoto [1]; cell cycle stage: G1/S): 52.8 °C | melting temperature (HeLa Kyoto [1]; cell cycle stage: mitosis): 53.2 °C | solubility change mitosis (log2) (HeLa Kyoto [2]): -0.226 | solubility in G1/S (log2) (HeLa Kyoto [3]): -0.0724 | thermal stability score (HeLa Kyoto [4]; [5]): -1.1 | thermal stability score (HeLa Kyoto [4]; cell cycle stage: mitosis): -1.25
